To fix the notation:
B1: Hairpin Ribozyme (parent)
chain: GUCCUCUUUCACGUGCGCGUGAAAGAGAGAAGUGAACCAGAGAAACACACGUUGUGGUAUAUUACCUGGUA

The data set covers variants of B1. As to the kind of experiment: self-cleavage, relative activity (ratio to wild type); higher = more cleavage; co-transcriptional.
As for GUCCUCUUUCACGUGCGCGUGAAAGAGAGAAGUGAACCAGAGCAACACACGUUGUGGUAUAUUACCUGGUU, the self-cleavage was found to be 0.159.
The same measure for GUCCUCUUUCACGUGCGCGUGAAAGAGAGAAGUGAACCAGAGCAACACACGUUGUGGUAUAUUACCUGGUC: 0.26; for GUCCUCUUUCACGUGCGCGUGAAAGAGAGAAGUGAACCAGAGCAACUCACGUUGUGGUAUAUUACCUGGUA: 0.24.
The same measure for GUCCUCUUUCACGUGCGCGUGAAAGAGAGAAGUGAACCAGAGCAACCCACGUUGUGGUAUAUUACCUGGUA: 0.0231.
The same measure for GUCCUCUUUCACGUGCGCGUGAAAGAGAGAAGUGAACCAGAGCAACACACGUUGUGGUAUAUUUCCUGGUA: 0.198; for GUCCUCUUUCACGUGCGCGUGAAAGAGAGAAGUGAACCAGAGCAAUACACGUUGUGGUAUAUUACCUGGUA: 0.194; for GUCCUCUUUCACGUGCGCGUGAAAGAGAGAAGUGAACCAGAGCAACACACGUAGUGGUAUAUUACCUGGUA: 0.129.
Take GUCCUCUUUCACGUGCGCGUGAAAGAGAGAAGUGAACCAGAGCAACACACGUCGUGGUAUAUUACCUGGUA: the self-cleavage was found to be 0.163.
On to GUCCUCUUUCACGUGCGCGUGAAAGAGAGAAGUGAACCAGAGCAACACAGGUUGUGGUAUAUUACCUGGUA, for which the self-cleavage turned out to be 0.143.
Turning to GUCCUCUUUCACGUGCGCGUGAAAGAGAGAAGUGAACCAGAGCAACACAAGUUGUGGUAUAUUACCUGGUA, the self-cleavage was determined as 0.162.
Under GUCCUCUUUCACGUGCGCGUGAAAGAGAGAAGUGAACCAGAGCAACACACGUUGUGGUAUCUUACCUGGUA stands 0.218.
The same measure for GUCCUCUUUCACGUGCGCGUGAAAGAGAGAAGUGAACCAGAGCAACACACGUUGUGGUAUUUUACCUGGUA: 0.0908.
With GUCCUCUUUCACGUGCGCGUGAAAGAGAGAAGUGAACCAGAGCAACACACGUUGUGGUAUAUUACCAGGUA, the self-cleavage came out at 0.0731.
The same measure for GUCCUCUUUCACGUGCGCGUGAAAGAGAGAAGUGAACCAGAGCAACACACGUUGUGGUAUACUACCUGGUA: 0.129; for GUCCUCUUUCACGUGCGCGUGAAAGAGAGAAGUGAACCAGAGCAACACUCGUUGUGGUAUAUUACCUGGUA: 0.142; for GUCCUCUUUCACGUGCGCGUGAAAGAGAGAAGUGAACCAGAGCAACACACGCUGUGGUAUAUUACCUGGUA: 0.109.
The same measure for GUCCUCUUUCACGUGCGCGUGAAAGAGAGAAGUGAACCAGAGCAACACACGGUGUGGUAUAUUACCUGGUA: 0.164; for GUCCUCUUUCACGUGCGCGUGAAAGAGAGAAGUGAACCAGAGCGACACACGUUGUGGUAUAUUACCUGGUA: 0.0582; for GUCCUCUUUCACGUGCGCGUGAAAGAGAGAAGUGAACCAGAUAAACACACGUUGUGGUAUAUGACCUGGUA: 0.168.
Under GUCCUCUUUCACGUGCGCGUGAAAGAGAGAAGUGAACCAGAGCAACACACGUUGUGGUUUAUUACCUGGUA stands 0.101; under GUCCUCUUUCACGUGCGCGUGAAAGAGAGAAGUGAACCAGAGCAACACACGUUGUGGAAUAUUACCUGGUA, 0.174.
Consider GUCCUCUUUCACGUGCGCGUGAAAGAGAGAAGUGAACCAGAGCAACACACGUUGUGGUAAAUUACCUGGUA, for which the self-cleavage is 0.162.
Under GUCCUCUUUCACGUGCGCGUGAAAGAGAGAAGUGAACCAGAGCAACACACGUUGUGGUAGAUUACCUGGUA stands 0.0932.
On to GUCCUCUUUCACGUGCGCGUGAAAGAGAGAAGUGAACCAGAGCAACACACGUUGUGGUAUAUAACCUGGUA, for which the self-cleavage worked out at 0.126.
The same measure for GUCCUCUUUCACGUGCGCGUGAAAGAGAGAAGUGAACCAGAUAAACACACGUUGUGGUAUAUUACCUGGAA: 0.233; for GUCCUCUUUCACGUGCGCGUGAAAGAGAGAAGUGAACCAGAUAAACACACGUUGUGGUAUAUUACCUGGCA: 0.162; for GUCCUCUUUCACGUGCGCGUGAAAGAGAGAAGUGAACCAGAGCACCACACGUUGUGGUAUAUUACCUGGUA: 0.153.
Take GUCCUCUUUCACGUGCGCGUGAAAGAGAGAAGUGAACCAGAGCAACACACGUUGUGGUAUAUUACCUUGUA: the self-cleavage amounted to 0.0938.
The same measure for GUCCUCUUUCACGUGCGCGUGAAAGAGAGAAGUGAACCAGAGCAACACACGUUGUGGUAUAUUACCUAGUA: 0.176.
The same measure for GUCCUCUUUCACGUGCGCGUGAAAGAGAGAAGUGAACCAGAGCAACACACGUUGUGGUAUAUUACUUGGUA: 0.181; for GUCCUCUUUCACGUGCGCGUGAAAGAGAGAAGUGAACCAGAUAAACACACGUUGUGGUAUAUUACCAGGUA: 0.151.
The same measure for GUCCUCUUUCACGUGCGCGUGAAAGAGAGAAGUGAACCAGAGCAACAGACGUUGUGGUAUAUUACCUGGUA: 0.0498; for GUCCUCUUUCACGUGCGCGUGAAAGAGAGAAGUGAACCAGAGCAACACACGUUGUCGUAUAUUACCUGGUA: 0.165; for GUCCUCUUUCACGUGCGCGUGAAAGAGAGAAGUGAACCAGAGCAACACACGUUGUUGUAUAUUACCUGGUA: 0.141.
With GUCCUCUUUCACGUGCGCGUGAAAGAGAGAAGUGAACCAGAGCAACACACGUUGUAGUAUAUUACCUGGUA, the self-cleavage is 0.13.
Under GUCCUCUUUCACGUGCGCGUGAAAGAGAGAAGUGAACCAGAGCAACACACGUUCUGGUAUAUUACCUGGUA stands 0.163.
Under GUCCUCUUUCACGUGCGCGUGAAAGAGAGAAGUGAACCAGAGCAACACACGUUAUGGUAUAUUACCUGGUA stands 0.217; under GUCCUCUUUCACGUGCGCGUGAAAGAGAGAAGUGAACCAGAGCAACACACGUUGGGGUAUAUUACCUGGUA, 0.148.

Source of the values: the RNAGym collection of RNA variant scans (doi:10.7554/elife.80360).
